Assay in all cases: cell-based or functional assay
In assay [1] the target is HIV-1 envelope (Env) of pseudovirus 6240_08_TA5_4622 (HIV-1).
Assay [2] deals with HIV-1 envelope (Env) of pseudovirus R2184.c04 (HIV-1).
In assay [3] the target is HIV-1 envelope (Env) of pseudovirus Q259.d2.17 (HIV-1).
Assay [4] concerns the target HIV-1 envelope (Env) of pseudovirus X2088_c9 (HIV-1).
Assay [5] has as its target HIV-1 envelope (Env) of pseudovirus CNE52 (HIV-1).
For assay [6], the target named is HIV-1 YU2 Env N276D, on pseudovirus (HIV-1) (UniProt P35961).

Consider BG1 (antibody), for which the IC50 in TZM-bl assay was more than 30 µg/mL in assay [1]; more than 30 µg/mL in assay [2]; more than 30 µg/mL in assay [3]; more than 30 µg/mL in assay [4]; 0.975 µg/mL in assay [5]. Moreover, the IC80 in TZM-bl assay in assay [1] was more than 30 µg/mL; in assay [2] it was more than 30 µg/mL; in assay [3], more than 30 µg/mL; in assay [4], more than 30 µg/mL; in assay [5], 5.01 µg/mL.
In assay [6], BG18 IgG (354BG18) (antibody) had an IC50 in TZM-bl assay of 0.012 µg/mL and an IC80 in TZM-bl assay of 0.036 µg/mL.
